Experimental data from patent US20200216522A1 (DENALI THERAPEUTICS, published 2020).

Legend:
Assay in all cases: peptide array
[1] = biological target: T1, Peptide_006 (human)
T1 peptide: QGGYTMHQDQEGDTD
Summary of the method: (§1)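 Overlapping 15-mer peptides (5-aa offset) spanning human 2N4R Tau spotted in triplicate on slides; antibodies bound 2 h at room temperature in 3% BSA-TBST (chimeric IgG 5 μg/mL; mouse IgG 30 μg/mL). Detection 1 h with fluorescent anti-human (568 nm) or anti-mouse (647 nm) secondary; fluorescence imaging aligned to array map.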

[2] = biological target: T2, Peptide_004 (human)
T2 peptide: GTYGLGDRKDQGGYT
Summary of the method: as §1

[3] = biological target: T3, Peptide_003 (human)
T3 peptide: MEDHAGTYGLGDRKD
Summary of the method: as §1

[4] = biological target: T4, Peptide_002 (human)
T4 peptide: QEFEVMEDHAGTYGL
Summary of the method: as §1

[5] = biological target: T5, Peptide_001 (human)
T5 peptide: MAEPRQEFEVMEDHA
Summary of the method: as §1

[6] = biological target: T6, Peptide_024 (human)
T6 peptide: DEAAGHVTQARMVSK
Summary of the method: as §1

[7] = biological target: T7, Peptide_022 (human)
T7 peptide: AGIGDTPSLEDEAAG
Summary of the method: as §1

[8] = biological target: T8, Peptide_021 (human)
T8 peptide: TTAEEAGIGDTPSLE
Summary of the method: as §1

[9] = biological target: T9, Peptide_020 (human)
T9 peptide: EIPEGTTAEEAGIGD
Summary of the method: as §1

[10] = biological target: T10, Peptide_019 (human)
T10 peptide: AQPHTEIPEGTTAEE
Summary of the method: as §1

[11] = biological target: T11, Peptide_018 (human)
T11 peptide: GKQAAAQPHTEIPEG
Summary of the method: as §1

[12] = biological target: T12, Peptide_017 (human)
T12 peptide: DEGAPGKQAAAQPHT
Summary of the method: as §1

[13] = biological target: T13, Peptide_033 (human)
T13 peptide: GQKGQANATRIPAKT
Summary of the method: as §1

[14] = biological target: T14, Peptide_032 (human)
T14 peptide: GAAPPGQKGQANATR
Summary of the method: as §1

[15] = biological target: T15, Peptide_030 (human)
T15 peptide: DGKTKIATPRGAAPP
Summary of the method: as §1

[16] = biological target: T16, Peptide_027 (human)
T16 peptide: SKDGTGSDDKKAKGA
Summary of the method: as §1

[17] = biological target: T17, Peptide_025 (human)
T17 peptide: HVTQARMVSKSKDGT
Summary of the method: as §1

[18] = biological target: T18, process-control peptide
T18 construct: array control, not a Tau peptide
T18 peptide: GGSGGGSDYKDDDDK
Summary of the method: as §1

[19] = biological target: T19, Peptide_046 (human)
T19 peptide: VAVVRTPPKSPSSAK
Summary of the method: as §1

[20] = biological target: T20, Peptide_044 (human)
T20 peptide: PTPPTREPKKVAVVR
Summary of the method: as §1

[21] = biological target: T21, Peptide_043 (human)
T21 peptide: RTPSLPTPPTREPKK
Summary of the method: as §1

[22] = biological target: T22, Peptide_039 (human)
T22 peptide: SGDRSGYSSPGSPGT
Summary of the method: as §1

[23] = biological target: T23, Peptide_038 (human)
T23 peptide: GEPPKSGDRSGYSSP
Summary of the method: as §1

[24] = biological target: T24, Peptide_056 (human)
T24 peptide: QIINKKLDLSNVQSK
Summary of the method: as §1

[25] = biological target: T25, Peptide_055 (human)
T25 peptide: GGGKVQIINKKLDLS
Summary of the method: as §1

[26] = biological target: T26, Peptide_050 (human)
T26 peptide: APVPMPDLKNVKSKI
Summary of the method: as §1

[27] = biological target: T27, Peptide_068 (human)
T27 peptide: QVEVKSEKLDFKDRV
Summary of the method: as §1

[28] = biological target: T28, Peptide_064 (human)
T28 peptide: SKVTSKCGSLGNIHH
Summary of the method: as §1

[29] = biological target: T29, Peptide_063 (human)
T29 peptide: KPVDLSKVTSKCGSL
Summary of the method: as §1

[30] = biological target: T30, Peptide_079 (human)
T30 peptide: EIVYKSPVVSGDTSP
Summary of the method: as §1

[31] = biological target: T31, Peptide_077 (human)
T31 peptide: NAKAKTDHGAEIVYK
Summary of the method: as §1

[32] = biological target: T32, Peptide_076 (human)
T32 peptide: LTFRENAKAKTDHGA
Summary of the method: as §1

[33] = biological target: T33, Peptide_075 (human)
T33 peptide: IETHKLTFRENAKAK
Summary of the method: as §1

[34] = biological target: T34, Peptide_074 (human)
T34 peptide: GGNKKIETHKLTFRE
Summary of the method: as §1

[35] = biological target: T35, Peptide_085 (human)
T35 peptide: DSPQLATLADEVSAS
Summary of the method: as §1

B1: murine anti-Tau hybridoma antibody 17G2.A1 (antibody, V domains shown)
VH: QVQLQQPGAELVGPGSSVKLSCKASGYTFINYWIDWMKQSPGQGLEWIGNIYPSDSESHYNQKFTDKATLTVDISSSTAYLQLSSLTSEDSAVYYCALYSKGYWGQGTSVTVSS
VL: DVLMTQTPLSLPVTLGDQASISCRSSQNIVHTNGNTYLEWYLQKPGQSPKLLIYKLSSRFSGVPDRFSGSGSGTDFTLKISRVEAEDLGVYYCFQGSHLPFTFGGGTKLEIKR
notes: mouse IgG from hybridoma; also called anti-Tau 17G2.A1
binding result [1]: no binding (tested: 30 ug/mL) | binding result [2]: no binding (tested: 30 ug/mL) | binding result [3]: no binding (tested: 30 ug/mL) | binding result [4]: no binding (tested: 30 ug/mL) | binding result [5]: no binding (tested: 30 ug/mL) | binding result [6]: no binding (tested: 30 ug/mL) | binding result [7]: no binding (tested: 30 ug/mL) | binding result [8]: no binding (tested: 30 ug/mL) | binding result [9]: no binding (tested: 30 ug/mL) | binding result [10]: no binding (tested: 30 ug/mL) | binding result [11]: no binding (tested: 30 ug/mL) | binding result [12]: no binding (tested: 30 ug/mL) | binding result [13]: no binding (tested: 30 ug/mL) | binding result [14]: no binding (tested: 30 ug/mL) | binding result [15]: no binding (tested: 30 ug/mL) | binding result [16]: no binding (tested: 30 ug/mL) | binding result [17]: no binding (tested: 30 ug/mL) | binding result [18]: no binding (tested: 30 ug/mL) | binding result [19]: no binding (tested: 30 ug/mL) | binding result [20]: no binding (tested: 30 ug/mL) | binding result [21]: no binding (tested: 30 ug/mL) | binding result [22]: binds | binding result [23]: binds | binding result [24]: no binding (tested: 30 ug/mL) | binding result [25]: no binding (tested: 30 ug/mL) | binding result [26]: no binding (tested: 30 ug/mL) | binding result [27]: no binding (tested: 30 ug/mL) | binding result [28]: no binding (tested: 30 ug/mL) | binding result [29]: no binding (tested: 30 ug/mL) | binding result [30]: no binding (tested: 30 ug/mL) | binding result [31]: no binding (tested: 30 ug/mL) | binding result [32]: no binding (tested: 30 ug/mL) | binding result [33]: no binding (tested: 30 ug/mL) | binding result [34]: no binding (tested: 30 ug/mL) | binding result [35]: no binding (tested: 30 ug/mL)
